Here are results for twelve sequences from a protein production outcome set (Wang et al. 2014).

A short description of the data set: label from the status in PepcDB records.
Regarding “MPDNEVDLLFAQLSPEDLIEWSDYLPESFTDRALAQMGERQRQRFELYDQYSENEIGRYTDHQMLVLSDKATVAQAQRFFRRIELDCNDNLFIVDEADKYLGTVRRYDIFKHEPHEPLISLLSEDSRALTANTTLLDAAEAIEHSREIELPVIDDAGELIGRVTLRAATALVREHYEAQLMATAGMDESDDLFAPILKGAQRRAVWLGINLLTAFLASATIGLFENVLSQVVALAVLMPIVASMGGIAGSQSLTLMIRGMAMGQISAGNLFSLMKNELGIGLVNGTLWAIVIGLVAGWWFADSIIGIVIGCAILINMAVAALAGVFVPMIL”, the protein production entry is recorded as “failed”.

Regarding “MPDWVTGTWLLALDWAIRLAALLWIPARTTPGAARSWLLLIGFVPVVGLPLYLLFGHPWLSRLRVERQATASQVIREQQLPLHALRWMPQADTSSAEVVPLIEREGDFMPTLGNAVELLDDYAQSLQALIAAIDAADKRVHLLYYLMFDDAVGEAVVVALERASARGVRCRVLLDAVGAKRGLRRYRKRLQDGGVQVLAVLPGGLRWRRSGRMDLRNHRKIAVLDNRVAFVGSQNLAEAGFIDGVPNRELVARVRGPVVNHLEAVFASDWFTETGERLDVWPDAPVCEANIATQLLPSGPAYPFENARDAINAVIHLARRKVVLVTPYFVPDEALLSALRIAPVSGVDVQLILSEHNNQRLAAWAQEAYFEELLRCGVKIALYRPHFLHAKHLSMDEDIALVGSINLDIRSFALNAEIGMLCYDTGVVQRLREIEQDYLANARQLTLEQWRRRPAWRRSREGIARLADALM”, the protein production result was “failed”.

Turning to “MPDYGHDLLFGAVLTPDAQNPRAVLESARLADRSGLDLVSVPDHPYRPDFLDAWTLLSVIAAHTERVRVFPNVANLPLRPPAGLARAAAALDVLSGGRVELGLGAGGYWDAIAGEGQPRRTPGEAVEALAEAIDVIRALWASGGAGATVDGTHYRLDGARPGPPAAHPLGIWVGALGPRMLRLIGRTADGWLPSATRVPPAELAVGQRIVDEAAIAAGRDPRAVRRLYNLP”, the protein production entry is “failed”.

On to “MPEAGLAQLVPLTAVALLAGVVDAIAGGGGLLTLPALLWTGLPPHLALGTNKGQSVFGSFAALVRFSRAGMVDGRRARLTFPLGLAGSLAGAGLVLLVPPATLRPVVLALLAFAALFVGLRRGPPARPDGGPRPAAPVVAGAIALAIGAYDGFFGPGTGTFLIVAFVALLGDGLAHASAGAKVVNFASNLAAVTLFSIKGVVVWRIAVPMAVAQLAGGWIGAHLAVRRGDALVRRTAVLVTLALAVKLAWDMRS”, for which the protein production entry is given as “failed”.

Take “MPERIIREDVKIGDGMMIDSDSQDDCVTKAVRTVEQKLTTEEHEIVMVYDYVSGSSGSSSTPSFTLTPYSPISYESDQEDYEDPPISPYISEAVVHSPDSTFALLWEGTSPILHFAADMRADAIPSVGDGTTSGIHIPYCFIYGEDGRYPQDCRF”: the protein production entry is “failed”.

As to “MPEVEDMPSIALHSVMASPNAEYVRWKAHGDFISQLNYYDSMKAVISSSNHEPTALVIGFTVGATDVKEKLNEIRNVGKNVMMGSSSASLALAKRQAECNRTVFRVHKGVKAFSFCRKKNLLATGGLDRIVRVWNPYLPGKPTGVLRGHMAPVMYVHVASEENKVFSVSADNTVKIWDLETHSCCCTVSSKASGIKGELTACLYLPGPRALCVATGTLALFHLKAGSVPEPHLLRSHQEPVVCCRYNPAFRQVVSCCEASVVKVWDLETGRWVSEFIGNAGITCLAFDSSGRRLVTGGRDGDLKIWSYNNGHCLHTLQHDENQNEVCDCTYMEVNRNGCVIAVGWDRRINVYFDIPRDFHHFRKPQPHWQDDLNHGHKEDILCVAQCPPFLLATSSYDGEIIVWNVISGHMYCKLNTPSPMDPREGPDRSVSRLTFLKTRLTKLDSTAASLISNGPGGSVSFWKLFSGSGLIANFTPAREKAQVSGIVVTSGDTVAYLADQHGFIYVYDIQEYGLWGAELQPPNSTHSWEVESQKHSFLKTFDVSEGAGKGLSSSLDCTVRLCSKDGAYIGTFGQNRPWDVYTPDSWGHPRVPLEILTDPQSMPTHLVLETDVPAGCSGGRQEQGHMTEEKVLFETEKTHNPPSPEGPVVEVEVKADKSQWSAFSHDRLLLSSKTLMQDKRLLSARRKPCWKVPELKWPSIYQALQCHELDFVSALREKPDLSVTGFDLLPDYRFPRGPTEYRQCSAELLFRSLPHAAHISSVPQAPAKLWGHKQN”, the protein production entry is listed as “failed”.

Take “MPEWAVILSICGLYLVLVLGLGVWSGRTVSASVDGYVAGDRTLGVIVLYFVLGASVFSSFAFLGAPGWAYSRGAAAFYIIAYGTVGMVPFYFLGPRARQVGEAFGFVTQAEMLAHRYDSRTLSVVLAALSVVAFVPYLTLQMKGAGLLLSTISDGVVPQWLGALAAYGVVLVYVFASGMMAIGWTNTVQGLFMMAVAWFLGLYLPETLHGGIQPMFEAIAASDKAAMLDVPGLAADGSPWSWAGYSSAVIVSAVGFSMWPHLFMRAFTAKSDRTLKLTVVLYPTFQLFLVPILLIGFAGVLAFPGVAPPDTIVPHLLTQIELSPVLVGLVCAGALAASMSSGDAILHAAASIGLRDGIKPLLAAPMTDTRQRQWIRGLVVATSATAYYFAVFSEVGIVALLLGAYGGVAQIFPLVFAAFYWPRATGAGALAGLLAGIGVNTLFLVAPHLRPFPLHEGVYGLAANIAVFLTVSLLTPPHDRDRLRAYTHSDRLAADETVAS”: the protein production result is “failed”.

Consider “MPFATNGAPYYEQLVMQIKQQIVQEVLRPGDQLPSIRAMASEMHLNPNTVSKAYQILEHQRAVYTVKGRGTFVSESSQIATDSNAVDDLQTRLQSLLTEAQFLGISAQQVQAWVTTAYQKGESRDEYPS”, for which the protein production entry is listed as “failed”.

For “MPFHGDAQENTWPNSRASPMSLASKLPRFRWLLPAFVVLVGVVLTIVMHWDDRAGLWWKESQASQQQRDESIWLPGYRVVIDAKPLQGLEEEETSDLAYNPATRTLFTVTGKRPLLVELSLTGDVLRTIPLLGLSNPEGVAVLENGNVAVTDERRNTLTIFHVDPQTAELSTKSLAEFPLGNIGKKNKGFEGIAWDPRQQRLLLSKERDPMTLFSWKSDGGPSLSGAMTALPSDDLYMRNVSALSVDPRTGHTLVLSAESHLLLELDEKGEPVSFISLLGGFNGLDSKIPRAEGVAIDDEGTIYMVSEPNLFYVFRKKSGERLATSDADLEHHHHHH”, the protein production entry is “failed”.

On to “MPFRTPNIANMTDKKFLPQLDENLPTDVFFHYFFLEAKTETLSHSHPWGQLHLIKQGRLEMEVDKQKMFCPANYAIWTPAHLLHRAFNHNDVEYCAINIEFELSQKLPTSACMFPLTPLLRAIVDDLVERQTTEVLSTEDKYLSHVLIERLSKTNPIENYLPFTDDKLLAPILMQLQENPADDSSLEIWAKRVFSTERTLARRFQKELKMSFNDWRQRAKLAKAMVLLKDAISINEIAYQLGYSQGSSFIKMFRKHTGVTPEQFRKEQQGK”, for which the protein production entry is listed as “failed”.

As to “MPGAEKGPQPRRPDFTEAGVIQNRAAGRNRSPDPSPDGAQARRRSWRNQGAWLSFVAWPHRRGSATVEPPPLTLRQQLTTVRWLLTGLFAMMLLVFLYFGRDVLMPIVLALLLALMLSPIVRLLRRRKVPEGVAAVVVTLGFAAGMLLIGFTISGPVATWLEDAPSIGKRIAHKLSSLRESFDVVLDASRQVEEAADTSSKDNTDRVVMAQPGLLVKAADSLASGFTTFGVTIVITLFFLASGSMFTEKIVHVMPLFRDKLRVLRVVRDIETEVSSYLLTVAMINAGLGVAVGCALWLAGMPNAFLWGGMAMVLNFLPYIGSMIGISLVALVSFVTFDSLGQALIPPLSYLAVTSVEGQFLTPAIVGRRLELNALSVMLAVLFWAWLWGIVGALIAVPLLVVVKVVCSHFEGLAVVGEFLSARRPFSDQVKDGA”, the protein production entry is recorded as “failed”.

Consider “MPGFDYKFLEKPKRRLLCPLCGKPMREPVQVSTCGHRFCDTCLQEFLSEGVFKCPEDQLPLDYAKIYPDPELEVQVLGLPIRCIHSEEGCRWSGPLRHLQGHLNTCSFNVIPCPNRCPMKLSRRDLPAHLQHDCPKRRLKCEFCGCDFSGEAYESHEGMCPQESVYCENKCGARMMRRLLAQHATSECPKRTQPCTYCTKEFVFDTIQSHQYQCPRLPVACPNQCGVGTVAREDLPGHLKDSCNTALVLCPFKDSGCKHRCPKLAMARHVEESVKPHLAMMCALVSRQRQELQELRRELEELSVGSDGVLIWKIGSYGRRLQEAKAKPNLECFSPAFYTHKYGYKLQVSAFLNGNGSGEGTHLSLYIRVLPGAFDNLLEWPFARRVTFSLLDQSDPGLAKPQHVTETFHPDPNWKNFQKPGTWRGSLDESSLGFGYPKFISHQDIRKRNYVRDDAVFIRAAVELPRKILS”, for which the protein production entry is recorded as “not failed”.
